We go through three substances from publication doi:10.1101/2023.10.27.564453.

pKd, pKi: −log10 of the molar value.

The assay addresses MIK2 ectodomain (MIK2^LRR), residues 45-707, 6 x His-MBP tagged (Arabidopsis thaliana) (UniProt Q8VZG8). Put plainly: MST.
UniProt Q8VZG8, sequence (Q8VZG8 45-707): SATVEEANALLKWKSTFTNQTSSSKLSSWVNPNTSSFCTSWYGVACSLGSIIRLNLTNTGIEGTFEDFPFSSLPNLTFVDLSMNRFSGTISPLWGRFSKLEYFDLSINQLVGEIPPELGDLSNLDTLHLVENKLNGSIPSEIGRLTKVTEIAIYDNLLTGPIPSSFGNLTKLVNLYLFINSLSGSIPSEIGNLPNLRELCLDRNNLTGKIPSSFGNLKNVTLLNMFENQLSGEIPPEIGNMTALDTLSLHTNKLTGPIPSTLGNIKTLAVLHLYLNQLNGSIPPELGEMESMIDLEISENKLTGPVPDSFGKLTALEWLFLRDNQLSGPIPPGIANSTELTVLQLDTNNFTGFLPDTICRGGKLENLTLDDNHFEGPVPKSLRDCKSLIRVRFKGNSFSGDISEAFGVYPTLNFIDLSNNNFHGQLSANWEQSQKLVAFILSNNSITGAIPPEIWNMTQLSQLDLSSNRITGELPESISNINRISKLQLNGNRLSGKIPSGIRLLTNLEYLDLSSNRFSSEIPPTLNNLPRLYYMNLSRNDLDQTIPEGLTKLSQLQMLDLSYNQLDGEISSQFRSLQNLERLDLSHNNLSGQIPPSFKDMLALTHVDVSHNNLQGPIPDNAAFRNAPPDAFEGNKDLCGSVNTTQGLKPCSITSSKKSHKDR

What is called pKi is the negative decadic logarithm of the Ki, by convention in mol/L. A low value points to a large Ki. Consider “SCOOP12 peptide (unlabelled) (from UniProt B3H7I1 44-78)”, for which the negative logarithm of the Ki (pKi) is 7.40.
Broadly, the pKd is the Kd on a negative log10 scale, so that one unit is a factor of ten. Low readings indicate a high Kd, high ones a low Kd. The substance “5-FAM-SCOOP10 peptide (SCOOP10#2, N-terminally 5-FAM labelled) (from UniProt Q9LU08 30-98)” showed a pKd of 7.87.
Still for that read-out and setting: under “5-FAM-SCOOP12 peptide (N-terminally 5-FAM labelled) (from UniProt B3H7I1 44-78)” stands 7.66.
